Assay results published in the DeepSol protein solubility set.

Test: soluble on expression in E. coli; label from the status in PepcDB or PDB records

Which “soluble on expression in E. coli” value does the source give for “MSLINVQNVSKTFILHQQNGVRLPVLNRASLTVNAGECVVLHGHSGSGKSTLLRSLYANYLPDEGQIQIKHGDEWVDLVTAPARKVVEIRKTTVGWVSQFLRVIPRISALEVVMQPLLDTGVPREACAAKAARLLTRLNVPERLWHLAPSTFSGGEQQRVNIARGFIVDYPILLLDEPTASLDAKNSAAVVELIREAKTRGAAIVGIFHDEAVRNDVADRLHPMGASEGHHHHHH” here?
Its value is “not soluble”.

For “MGSDKIHHHHHHKITQDDLKQLDGNLTPLGAERAANKDGTIPAWTGKWLGAPTGVAYKAGERYQDPYADEKPLYVITAQNMAQYDKQLTDGLKALFKKYPETFKMPIYATHRDFRYDDGTYKAIRTYAPQIEMLGEGNGVKNSPPTLPYPIPKTGLELLWNLRFASAIESERAVYDQAVVYADGKVAWGKVKYEIWSPKDGQHFDAKAPMNARAFYRMYTELPLRDRGSIITGYTVYDSPEPDSNRAWSYNPGTRRVRQAPEYGYDQPFGPGGFRTVDDDHFFNGSPERYDWKIVGKRELYVPYNNYRMSSPSIKYQDLLTKGHADPSNMRYELHRVWVLEATLKQGFRHQYAKRIIYIDEDSWYGVLADNYDSRGQLWRTNIQANVYAYDAKRFYPTAVFFHDLISGAYLADRLTNEGQPPRLNSEPKYVEAYFSPDAARGAGN”, which “soluble on expression in E. coli” value is on record?
Its value is “not soluble”.

For “MSYGPQLPAFLMKGQIKENEVDDEAEEGAPQVYGPVIPGMEEPKNEKEKHDDQEETSVFGPSIPKEVREKLQNVENPAEDDEEDEEFPSQSYGPSIPSNFRPTVGPSIPGTFGDDSDEDIGPMPVAKGDEEKEAIDRAYRMVLQKEAEDDEKNFQPKREEWMTSVPKKLGNFGLGARTFKKGTTSERDASWEDAPGAKKRRNEETRSARSVGIAAADARQAAIVAEKTSGPSLLEIHQKKRDEKVKDAGYAQGERRPFDREKDMEVRGLKPGGSKEAVDRMKEFADRFANSKDQRFL”, which “soluble on expression in E. coli” value is on record?
The value was “not soluble”.

Which “soluble on expression in E. coli” value does the source give for “MRKPRITYLDVWANDERIGTLEKGAMYRFAYDNPNSSLLGLHYQDRSKVYISNNMPHIFAQYFPEGFLDAHITSKYAFHDAPFEDNEMLRLAILCRETLGRIHVRCNDPLFNEWIDGLEMKNPRILTERDLLGINARQVFQQYMAEIFHHGRFVSVSGIQQKMSLDAIRRNTKQTASYIAKGFDASEYPCLAANEFLCMQTIKQAGIAVAQTSLSEDSSVLLVRRFDVSEQGYFLGMEDFTSLRQYSVEDKYKGSYAAIAQIIRQISGRPDEDLIHFFNQLAASCILKNGDAHLKNFSVLYHDEYDVRLAPVYDVLDTSIYRVGTQGIFDAYDDTLALNLTNHGKKTYPSKNTLLDFAEKYCDLGREDASFMIDTIVQAKEQVLVKYSDVLRENEWLAQKWHFIPDENEEGLPFTFR” here?
The value was “not soluble”.

For “MGSDKIHHHHHHMRVKIYTLADDYAGYNSPFWAQHGVSFLVEVEGKKILFDTASYAEPILFNMKLLNLNPRDIDMIVLSHNHFDHTGGLLGILREINRKVPIFAHPEIFKVSFALEPEFMYAGTPRLKEEAEKLGGIWILTRDPITLMPGVFTLGEIKEEEKVEFEKGSTGLFKIEDGRVIEDKVEDEIGLAINTRKGLVVLAGCAHPGIVSMVKKAIKLSGNDKVYAVLGGFHLINAEDSRIEKTVEAFKELEVKKVYAGHCTGLKAESRFAQELGDRFEKLHSGKIIEIS”, which “soluble on expression in E. coli” value is on record?
The value was “not soluble”.

Which “soluble on expression in E. coli” value does the source give for “MAHHHHHHMHADGMHTEQDEFTLSQYVQRTPLARPLGLKIGARVMLRTNLAPGLVNGSLGTVVAFRKLEMDQLPRYIVGNAQREESILQYADYLKYEQGFEVPLVPVLDFNGRQEVIPPVTHFVGGLPNTHFYSMGIIALPLSLAYAFTVHKVQGLTLVGRVHLELSRMWPCEHLLYVAMSRVRNPEQLSVSSFHPSLVRAAADCLLFDDSLPPVTQVRIAPYMVAATWRRSSERRKKTVLRKRLEAYVKRRQQRLQSEASKGDIRAEIRLLEEKMLKQRVRASAAHRKRRSTPGKLGAVAGSPMV” here?
Its value is “not soluble”.

Which “soluble on expression in E. coli” value does the source give for “MFALVLFVCYLDGGCEDIVVDIYDTEQHCLYSMDDQRIRHGGCFPVEDFIDGFWRPAQQYSDFLEHHHHHH” here?
Its value is “not soluble”.

Which “soluble on expression in E. coli” value does the source give for “MSLRVLIVENEIYLAQSIAAKLSDFGFECEIVSLVNEALREQEYDVVLLSTNVSGQNYYPIIEKHKDSIIILMISYVSDDTVSKPLKAGAKDYILKPFMIDELIRKIEHYRTFQKLKKEVQFYRRYLDFALSDFPSSLNQKLTTPFVIKSSTQKSADAYAIAYAKHKDIPLDFLSIKEGFHWRDKLKRALPCREIKYIVGLEELKKSERKELLEIVAKSCVILSFVSSEEGHHHHHH” here?
The value was “not soluble”.

For “MPRILFTVPPFPVFIAAGEGVFKKGETHVKRVFSVFDLIYVKQGTLYITENETSFSVEGGEYILLSPGLEHYGTKGSDEATSYYWLHFDEHRYEFTAKGGSNWSELQQEKGSFEELARYGLALPRKGKVQRPQFMAQQFEKLIDYSAENSDLPLRKQILFEELMLHLQKEAFQIPSAKERVAWEAARYLQEHYKEKTTIKDLSLALHYHQDYVSRCMQQVLGVTPAQYTNRVRMTEAKRLLSSTNDKMGVIAETVGMEDPTYFSKLFKQIEGISPIEYRKIVSRKVQ”, which “soluble on expression in E. coli” value is on record?
Its value is “not soluble”.

Which “soluble on expression in E. coli” value does the source give for “MNTMEEKYILSDRGKVYYWIKESNSVFAKNLIFLPGLTANHHLFDFQIQYFSKNHNVLVWDAPAHGKSRPYLDFSYSNLVEELKVILDKQNMKKVVLIGQSAGGFVAQSFIVKYPNMVEGLMMIGTCPYGTDYYSKSDIFWLKQTEWMLKLFPDKLLRNIISKMCGATSEGRRSMLKMLEGYEKKELCHLMYLGFAGFIPEIQDLNIHCPVCLVVGDKDKTGKVRKYNEQWHNKTGYPLHIIKNASHNVNVDKPNELNQIMDIFIKQLNI” here?
The value was “not soluble”.

With “MENLKNVAPIEDFNWDAYENGEAVTSASHEDLEKAYDGTLNKVNDREVVDGTVIAMNKREVVVNIGYKSDGIIPLNEFRYNPDLKVGDTVEVYIENQEDKKGQLVLSHRKARATRSWDRVNAALENEEIIKGFIKCRTKGGMIVDVFGIEAFLPGSQIDVKPIRDYDVFVGKTMEFKVVKINQEFKNVVVSHKALIEAELEQQKKEIIGKLEKGQVLEGTVKNITSYGVFIDLGGVDGLIHITDLSWGRVSDPKEVVELDQKLNVVILDFDDEKKRIALGLKQLTPHPWDALDTDLKVGDKVKGKVVVMADYGAFIEIATGVEGLIHVSEMSWSQHLRSAQDFMKVGDEVEAVVLTLDREERKMSLGIKQLKQDPWETIEEKYPVGSKHTAKVRNFTNFGVFVEIEEGVDGLIHISDLSWTKKVKHPSEFTQIGADIEVQVLEIDKENRRLSLGHKQLEENPWDVFETVFTVGSVHEGTIIEMLDKGAVVALPYGVEGFATPKHLVKEDGSQAQLDEKLEFKVIEFNKDAKRIILSHSRIFEDVAKAEERAEKKAASGAKKSSNNKREDAPMIQNQAASTTLGDIDALAALKEQLEGKKLEHHHHHH” as the sequence, how does the “soluble on expression in E. coli” value read?
The value was “soluble”.

For “MALLRIFDAHCDALLKLWEDPAREYTDDPAIEANAVRLMEGGVRAQCFAIFVGPNIPFDQKFQVALQQAELFHEKILKKHPQFSFIERWDDLLTLDADQIGAILTLEGADPFGDDPTKLKTLYRLGVRSLGLTWNQANLCADGVGEPRGGGLTEWGKAVVSLNNEHHVLTDVSHLSERGFWDVIEYAQFPVATHSNAKAICKHRRNLTDAQLKALIEAGGFIGIVFHPHFLTGTDDASIDDVMKHIEHICSLGGQKHVGFGSNFDGIPCFVDGLEHAGRFQWFMDELLKRYDEELVRGFAWDNFLKATPISYVEGHHHHHH”, which “soluble on expression in E. coli” value is on record?
The value was “soluble”.

With “MKNSLRIPRIIHQTWKTKDVPSPLDQLPQTWKEYLPNWEYILWTDEMNREFVCKHFPDFLEKYDTYPCNIQRADAIRYLLLKVYGGLYVDMDFECLENIEFLLEGSDFIVGKEPDWHAKRFGFEYIICNAFMASTPDNDFINFVCQRLINHSGGKVVNNGFDILDSTGPFLLTHAFNAFPHKEDIRILESKTIYPIGQWEVEKIKNNQIPKEMEERINQAHAIHYFFGTWFGKLEHHHHHH” as the sequence, how does the “soluble on expression in E. coli” value read?
The value was “not soluble”.
